According to article PMC4431850 (PLoS ONE, 2015):
One block for each binder: values may come before it.

How the values were obtained:
[1] = target: the molecule itself; test: SEC-MALS; light scattering experiments, data not shown; oligomeric state
[2] = target: the molecule itself; test: SEC-MALS; Superdex200 10/30 coupled to light scattering (miniDAWN TREOS) and refractive index detectors; 20 mM sodium phosphate pH 7.5, 2 mM DTT; oligomeric state
[3] = target: T1, Cul3^NTD, N-terminal region (residues 20-381) of cullin 3 (UniProt Q13618 20-381); test: SEC; BTB domain mixed with Cul3^NTD at 4°C in 20 mM NaP, 200 mM NaCl, 2 mM DTT pH 7.5; Superdex 200 10/30; SDS-PAGE of the peaks; conditions: both partners purified
T1 construct: cullin 3, N-terminal region, residues 20-381; Printed Mw 42 kDa; source: expressed and purified according to Balasco et al. [19]; recombinant, bacterial system
T1 sequence (Q13618 20-381): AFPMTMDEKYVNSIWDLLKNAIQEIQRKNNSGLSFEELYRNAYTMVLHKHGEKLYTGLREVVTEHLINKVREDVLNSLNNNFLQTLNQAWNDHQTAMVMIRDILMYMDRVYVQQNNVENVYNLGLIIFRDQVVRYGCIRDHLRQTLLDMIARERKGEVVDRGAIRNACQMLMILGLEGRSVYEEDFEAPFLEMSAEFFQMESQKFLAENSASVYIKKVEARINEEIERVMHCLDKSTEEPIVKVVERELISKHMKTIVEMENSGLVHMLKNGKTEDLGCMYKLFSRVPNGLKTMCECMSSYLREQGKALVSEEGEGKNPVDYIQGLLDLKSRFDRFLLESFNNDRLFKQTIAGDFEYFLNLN

[4] = target: T1, Cul3^NTD, N-terminal region (residues …); test: ITC; BTB domain (55 μM as tetramer) titrated into Cul3^NTD (25 μM); 22°C; 20 mM NaP, 200 mM NaCl, 2 mM DTT pH 7.5; single-binding site model; conditions: both partners purified

B1: BTB domain of KCTD12 (KCTD12^BTB) (domain or fragment, UniProt Q96CX2 27-131, looked up)
chain: AEPPLFPDIVELNVGGQVYVTRRCTVVSVPDSLLWRMFTQQQPQELARDSKGRFFLDRDGFLFRYILDYLRDLQLVLPDYFPERSRLQREAEYFELPELVRRLGA
notes: KCTD12, BTB domain, residues 27-131 of UniProt Q96CX2; Tetramer (~46 kDa); source: E. coli BL21(DE3), purified (procedure of Correale et al. [24] and Errington et al. [25])
stoichiometry N [1]: 4

B2: BTB domain of KCTD6 (KCTD6^BTB) (domain or fragment, UniProt Q8NC69 10-110, looked up)
chain: MTDPVTLNVGGHLYTTSLTTLTRYPDSMLGAMFGGDFPTARDPQGNYFIDRDGPLFRYVLNFLRTSELTLPLDFKEFDLLRKEADFYQIEPLIQCLNDPKP
notes: KCTD6, BTB domain, residues 10-110 of UniProt Q8NC69; Tetramer (~46 kDa); source: E. coli BL21(DE3), purified (protocol of Pirone et al. [23])
stoichiometry N [1]: 4

B3: BTB domain of KCTD15 (KCTD15^BTB) (domain or fragment, human, UniProt Q96SI1-1 61-157, looked up)
chain: DVGGHMYTSSLATLTKYPDSRISRLFNGTEPIVLDSLKQHYFIDRDGEIFRYVLSFLRTSKLLLPDDFKDFSLLYEEARYYQLQPMVRELERWQQEQ
notes: KCTD15, human, BTB domain, residues 61-157 of UniProt Q96SI1-1; cloned NdeI/EcoRI into pET28b+; Tetramer by light scattering (47.1 kDa against 47.5 kDa expected); source: E. coli BL21(DE3) pLys-S co-transformed with pREP4 GroESL, purified (Ni-NTA, Superdex200)
stoichiometry N [2]: 4

stoichiometry N [3]: 1 BTB chains : Cul3^NTD (4:4)
Kd [4]: 25 ± 2 nM
dH [4]: -21 ± 0.1 kcal/mol
stoichiometry N [4]: ~0.25 KCTD tetramers per Cul3^NTD
B4: BTB domain of KCTD11 (KCTD11^BTB) (domain or fragment, UniProt Q693B1-2 15-116, looked up)
chain: GPVTLNVGGTLYSTTLETLTRFPDSMLGAMFRAGTPMPPNLNSQGGGHYFIDRDGKAFRHILNFLRLGRLDLPRGYGETALLRAEADFYQIRPLLDALRELE
notes: KCTD11, BTB domain, residues 15-116 of the long form of the protein (isoform 2, UniProt Q693B1-2); numbers count on: the long form (isoform 2); Tetramer (~46 kDa); source: E. coli BL21(DE3), purified (procedure of Correale et al. [5])
stoichiometry N [1]: 4

B5: chimeric BTB domain CHIM11/12^BTB (KCTD11^BTB with residues 42-63 replaced by residues 61-80 of KCTD12^BTB) (domain or fragment, UniProt Q693B1-2 15-41, looked up)
chain: GPVTLNVGGTLYSTTLETLTRFPDSMLWRMFTQQQPQELARDSKGRFFIDRDGKAFRHILNFLRLGRLDLPRGYGETALLRAEADFYQIRPLLDALRELE
notes: KCTD11 BTB domain (15-116 of the long form, isoform 2) up to the replaced α2β3 loop (42-63); numbers count on: the long form (isoform 2); KCTD12, residues 61-80, predicted α2β3 loop; KCTD11 BTB domain (15-116 of the long form, isoform 2) after the replaced α2β3 loop (42-63); also called chimeric variant of KCTD11; source: E. coli, purified (procedure used for KCTD11 [5])
stoichiometry N [2]: 4
